Measured values: the DeepSol protein solubility set

Test: soluble on expression in E. coli; label from the status in PepcDB or PDB records
For “MGSDKIHHHHHHENLYFQGMRYLSKDILEEVITQRPSDSYKSNFGRVVLIGGNRQYGGAIIMSTEACINSGAGLTTVITDVKNHGPLHARCPEAMVVGFEETVLLTNVVEQADVILIGPGLGLDATAQQILKMVLAQHQKQQWLIIDGSAITLFSQGNFSLTYPEKVVFTPHQMEWQRLSHLPIEQQTLANNQRQQAKLGSTIVLKSHRTTIFHAGEPFQNTGGNPGMATGGTGDTLAGIIAGFLAQFKPTIETIAGAVYLHSLIGDDLAKTDYVVLPTKISQALPTYMKKYAQPHTAPDSELLEQKRSR”, the “soluble on expression in E. coli” value was “soluble”.
For “MGSDKIHHHHHHENLYFQGMTEKSQEPTAALDAEQVAAYLSQHPEFFVEHDELIPELRIPHQPGDAVSLVERQVRLLRERNIEMRHRLSQLMDVARENDRLFDKTRRLVLDLLDATSLEDVVSTVEDSLRHEFQVPYVSLILFSDSSVSVGRSVSSAEAHQAIGGLLSGGKTVCGVLRPHELAFLFGESDRDEIGSAAVVSLSFQGLHGVLAIGSPDPQHYKSSLGTLFLGYVAEVLARVLPRFSSPLRSVR”, the “soluble on expression in E. coli” value was “soluble”.
With “MGSDKIHHHHHHETLRAFQRKAYESTEKTNCVCFFIQEALEIAENLEHLATDPNYQKPPLFGVPVSIKESIHVKNLDSTAGYAQKINNPSDANSVSVDQLIRLGAVPFVHTNIPIALLSYGCSNGVYGTTLNPLDNSRVPGGSSGGEAALVSLGGSVLGIGTDVGGSIRTPASFCGLAGFKSSSDRSPQLGKTASIPGRQLLLSVEGPIAKNIDVCVEYLRLKWNDPLLYKKDVYMPPVKFQENLYNSEKPLKIGYYTFDGYQTASPAYQRAVRETVAVLKELGHELVPFEVPQPDHMYSIFCAGATADGGLYLMDSLANDIIPPEADIGFPVAKLPHFIQRLLRKYWHHRRERQIIQELPHDTEEMRQMHEKIEDYRHEFVLAMRAKKLDALVCPAFGCPPPHHGMPNKILGANSYPALYNLIDFAAGTVPVTVQKQEDEVELRKMKTEDSWDRRVVTESKNCIGLPVSVQIATPPYREEMCLRLLKQVEAKIGLYSRTH” the “soluble on expression in E. coli” value was “not soluble”.
For “MGSDKIHHHHHHEVDLYKGGSLREPAYLYPFDQENKNVTAEITIKTNSTINLELLDVYFAPLKYNKHLLIMLTQDDCKPSIYPRTWASINGKPLSGQYYYHYEQLKQDDLPPDIYYLGKTLGCTDGTGKEVRFSFTATLAADDNYMAEESIINLGYSKDNYRFYGRNGILWEDVIDIVNYGNSIAFHNVNTKEIHNIDSIQKHYLIGQDSIQKRLSGRKCKTLSEPDGNIDYTTAAINLDDIKTITAERGEKVYPFHNLTNLENHTLNRVFHDSPDDFKQVIEQERSIPTVDRCAINIGVHSTDAFWTDFLLWLNDTYGKDGEDCIWMPSQEEYYEYNYYRMHGKIEKSADGSTLKLIINLPSQEYFYYPSVTINLKGLKKEDIKSIESNSAVTGLSYGNYQDGVMLNIDCRRFLVEHATHFVEQYEKDKTNQSNKADALYFVNMLKESSKKAELLNRIK”, the “soluble on expression in E. coli” value was “not soluble”.
In the case of “MGSDKIHHHHHHGASEVMWKDFRNEKTIDTVYLGSSFSQVTFNPYIIDEKLGWKSFNMGTPAQPLDQSYVALQNAIKEKKIKRAVLAYGIPTMEDTQNDNARITFAHAMKYGCSWKQKVKMDWDFITDKENINTESSINYLFPWISNSIEWTKTAIENNIKLKKHNNDATENMKTTEWYASYIGKGYAPILTGGFDYKNAITDNTKANYNCIISETAYCKLEKICRLCKDNEVEFIIVNTPKAPYDISMYGADEYFAINSRIEEICTKYGFSYYDFNLIKPQIFQICPEYLNNYEHLSKAGSEAFCNAFSNFIRLHDSGECMTNYFYNEEEYLDSVKDIVQCIKE”, the “soluble on expression in E. coli” value is reported as “not soluble”.
With “MGSDKIHHHHHHGILKERKLAKKRDEVQRYVLMAADVNLGQGNEFREIFAKSVKPLLINLDTGKVDSDANVLDFDERMAAINPETSSTPKKDIAKIKTRANDARVFKVFDDSGKLSSVVVPFYGKGLWSMIYGYVAVEPDFNTIKGLVVYEHGETPGIGDFVTDPAWLNQWKNKQLFDEKGKFAIRLVKGGVKEGDVHGVDAVSGATMTGRGVQRAMEFWFGVEGFQTFFNQLKTSAVQGEFGGEK” the “soluble on expression in E. coli” value was “not soluble”.
With “MGSDKIHHHHHHGLDRWMSWKTAPYIYDELQDLPYRQVGVVLGTAKYYRTGVINQYYRYRIQGALNAYNSGKVNYLLLSGDNALQSYNEPMTMRRDLIKGGVDPADIVLDYAGFRTLDSIVRTRKVFDTNDFIIITQRFHCERALFIALHMGIQAQCYAVPSPKDMWSVRLREFGARFGALADLYIFKREPRFLGPLIPIPAQQHDVPDDAQSYPAVTPEQLLELQKEK” the “soluble on expression in E. coli” value was “not soluble”.
With “MGSDKIHHHHHHGYQFTDVVKVPATPVKNQASTGTCWCFATTSFMESELLRMGKGTYDLSEMFIVRQKYMNQLQDNYVRQGRGNIGQGSLSHTFMNAFNQVGIVPEEVYSGINYDSDRHNHAEMVKYIKAIATTAVDMKKRSPEYYKLIDNLFDTYLGKLPEKFTYQGKEYTPKTFAASLGLNMDDYIELTSFTHHPYYQKFEVEVPDNWEHAQMYNLPLNEMMEVADYALNNGYTVCWDGDVSEKGFSFKNGVAINPEVKKVEDYSTTDRARFEKMDEKERLEEVYKFEKPFPEVNVTPQVRQEGFEAFVTTDDHLMHLTGIAKDQNGTKYYITKNSWGTERNTFGGYLNMSDSFVRAKTIYIMVHKDAIPKAIKSKLGI” the “soluble on expression in E. coli” value was “not soluble”.
In the case of “MGSDKIHHHHHHHTDKAEFLDFSNLTQYRQDVKTLASDAFEGRAPLSKGETLTLDFLVNAFKEMGLAPGFGDSYLQAVPMAKITAKQDMQLTIGALKFTHGKDFTARSQQIKPHIALNNSEVVFVGYGINAPEFGWNDYAGIDVKGKTVIMLVNDPGFATQDNKRFKGNAMTYYGRWTYKYEEAARQGAAAVFIVHETAPAGYGWGVVENSNTGSKFTLVDDNNNLSQIAVMGWLQHKATQQIFATAGLDFDSLKLSTHKAGFKTVDLNLSAKLNLDNSIEMAKSHNVLALLPGATEFDGKRNPQQDELVVMHAHWDHLGSKTHQDGSQEIFNGAVDNASGTAGVLALARAFKAKASVTPFKRSILFSAFTAEETGLIGAQYFAQNPSVPTKNIAAFLNIDGMNVNDGVSYILQYGQGVSELEDYLEDAAKAQQRTVKADPLPQNGLMFRSDHFALAQEGVPGLLFMSLGDTDPNYIDAKYHKEADDYDANWSLGGVSQDLSLIGSILARLANNSDWPKWLEDSDFKTRRSEDNR”, the “soluble on expression in E. coli” value is reported as “not soluble”.
For “MGSDKIHHHHHHKESGSLLNLLTDAEIERTEKIVISGNGLEEKDFAVLKAMLIRHALREVDIENTSTRAITERAFEGCSNLSAIKLPKYLVNTGWYAFEDCSGLMDIELPVSVETIANSFRGCSSLTSITLGRRVKSLDSQSFYLCSNLREVHCKGSIPPSCKQDSFKGLYETCTLYVPEGCKRDYTFADGWLNFGNIREEYVEPALSLRVNLEGGTFAWQLYPLYDGNGGIIVNHFYPGQDYLIDVEKGETIVFHIAEENTYFSNWKIDTILLNGEDITSQVTENDLLYLNIDRDSKLEIVMKDLSVTSNDVIENPQDIKISTLDNKVLIQNITTGERVNVYNVLGVLVHSVVVEAMDYEVQLPKGEIYLIQIGKKTVKLKL”, the “soluble on expression in E. coli” value was “not soluble”.
In the case of “MGSDKIHHHHHHLEYVIEMLNIRKEFGSFVANDNITLQLRKGEIHALLGENGAGKSTLMNVLFGLYQPEAGEIRVRGEKVNITSPNVANDLGIGMVHQHFMLVQNFTVTENIILGAEPKAGLKIDRAAAREKVRQISEQYGLAVDPDAKIEDISVGMQQRVEILKTLYRGADILIFDEPSAVLTPQEIKELIQIMNRLIAEGKSIILITHKLKEIMEVADRCTTIRRGKYIGTVDIDETMTQSRLAEMMVGREVNFNAEYSKATPQELVLDIKDLVVKDSRGIKAVDGLNLDIRAGEIVGIAGIDGNGQTELIEAITGLRKADSGEIFLNNKSIKNLKPRKVTEAGVGHIPQDRHKHGLVLDYSIGHNMVLQTYYQKPYSKAGIMNYGQVMDKAKTLIEKFDVRTPSPETFARALSGGNQQKAIIAREVDRSPDLLIAAQPTRGLDVGAIEFIHEQLVLEREKGRAVLLISFELEEILQVSDRIAVLYEGRTVAFLDPKETNEIELGFLMAGGKKEEVGRS”, the “soluble on expression in E. coli” value is reported as “not soluble”.
For “MGSDKIHHHHHHLFNYFQLNDPKDFKHLLNMAGQDILINGKPARALITNTNLTESKDNRNITTLENIESGYLIDYDDGKWLVISEVSGKRYNKYKGIMQKCHNTLTVNIAGILHRVPYVVTNKVNLNIDVTYYLTVLENEIYILVANNTINSNIQLNDIYKIGRFNYKVISMDDISRPGLLLMKMKYSEEGQVLPNYSITILNGDTLTTDTATPVQLNVEQKDGETVLTNPLPMVFTSSDISIATVDSTGMVTPVSVGNVTITVSFESDTTVNDSIVITVEEVEVPETYTLELIGDTEIKQNQTKTYTAVKKNGLGDIVEGATFDFSIDPETTPADKYTLTVLDNTQCSIKANGATYYINLIATDRTDNSLTVSKRIWLKPLF”, the “soluble on expression in E. coli” value was “not soluble”.
For “MGSDKIHHHHHHLKALVVGLGSIGVRHLNNLHALEVRELGVVRSRNFPPPTEIVPKDIAVFQDIDLALSRKFDLVVVANPTSLHLETLIKALRAGSHVYVEKPVAHEKRRLSELTRYVSLDGPRVLVGCQFRMHPGLRKIEGWIRQGKLGKIHSVQVDLGEYLPGWHPWEDYRQSYAARADQGGGVVLTLIHELDYLHWLFGKPKSVFAIGGHRTSLDITAEDTALITFETEQDICVQLRMDYWRKPPVRHMNIVAENAIVDWDYPTRLTTLRQNGQVLDEMVLVPSWDRNELFLSMMKEFIEGIPRGSIPRVTLRDGIEVLKTALAVKKSLQTHRKVAL”, the “soluble on expression in E. coli” value was “not soluble”.
For “MGSDKIHHHHHHLLKSSSTVHKGADYWTKRISDQEMPALCSTVRELEKLAKDDVSSLAILGRSVMHDNALTSRILRVANSATYNKGINHVSTVSRAAVMLGFDTLRNICITARLLSSLLENKNLSPNVYQRLLKLMAQSFQAAMLARMMMTGHDEKLREEVFIASLLYRIGESAFWSTGGSFSDALDQKLRDSDSEQDPQAIVRDILGTSFSQLTQNIARSWGLGEVLLKSLSHPDERTPEIRCIALADKLAQLLIEPAEDPNEFAERLKQTADMLNIEVSEFRQKVVDCTKATQKLAIDYGAKVLLDFLPKSADVKASVDQEAKPLVVRASDAAIQLKKLRELTGYALTKTDFNQVMLTALEGILSGVGVDRCGVLLLSPNRQLLQPRIMLGDEAEAMKREFIISLDETMSIFSQCVERKTPFWVADPNAKEWQKSINPALKTKLSKTGFFLAPVSIDTRVIGVFFADRSHSGRSFEPQDYDNFTHFTQLANICFGVSVK”, the “soluble on expression in E. coli” value was “not soluble”.
In the case of “MGSDKIHHHHHHLNLIWTNLRVPVEEDERQLPLMIARKLKVSQQSISNLRILRRSVDARKKPQLLFSYTLGFSLDIPYKEVNRVLHRVADLKPEPQIMPRPFMKPEKSLKHRPIVVGAGPAGYFAALTLAKGGYAPLVLEQGDDVETRSLKVENFWRTGQLDTESNVQFGEGGAGTFSDGKLTTRIADPRITEVLETFVEQGAPSEILFLAKAHIGTDILKIVTQRLREKIQSLGGEVRFRAKLTGLRHQNGKLVGVEVNHQEVVPAEAVILAIGHSARETYRLLLAQGVHLEQKAFAIGLRIEHPQKLINTSQYGVEFHPKLGPADYQLTYQDTTTGRGAYAFCMCPGGKVVAAASDLERLVTNGMSEYRRDTGIANSALVVTVGKGDFQREHPLAGVEFQEYWEHQAFLAGDRDYKAPAQSVRDFLAKRVTGDFPLPASYTPGIQPVELHRVLPQAVGDVLDRALLSFERKIQGFAGEMGTLTGIETRTSAPVRITRDKMGEALHIQGLFPAGEGAGYAGGIMSAAVDGIRSAEGIMAQYNPAD”, the “soluble on expression in E. coli” value is reported as “not soluble”.
For “MGSDKIHHHHHHLQKYLSILRNSPFFKGLADNEILSILHCVNATTISKKRDSYIFRAGDITEVMGIVVSGCVLIIQEDIWGHRNILSKCHAGDFFGEPYAASQRAVLNISVVADEDCEIILLNVKRLLITCPTACEHHQKLIRNLVSVLANKILILNDKITHVGKRTTRDKLLSYLSAESIRHSSLSFDIPFDRQQLADYLCIDRAAMSTEISKLQKEGFIKTNRNHFELQLSIIKKKNYTI”, the “soluble on expression in E. coli” value was “not soluble”.
